The values below are quoted from earlier work in paper PMC6522352.

The target in this data set is IL-9 (Mus musculus) (UniProt P15247).
Sequence of UniProt P15247 (P15247 19-144): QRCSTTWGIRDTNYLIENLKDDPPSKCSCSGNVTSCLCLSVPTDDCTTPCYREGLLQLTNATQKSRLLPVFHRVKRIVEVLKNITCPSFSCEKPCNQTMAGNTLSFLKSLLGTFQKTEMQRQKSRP

In general, Kd refers to the concentration at which binding is half-saturated. For “IL-9 receptor alpha (from UniProt Q01114)”, the Kd was 0.1 nM.
